From US20180064666A1

Biological target: GST-Pin1 (UniProt Q13526)
Assay: fluorescence polarization; labelled pTide probe titrated with GST-Pin1 (the concentration is that of GST-Pin1)

GST-Pin1, sequence (Q13526 whole entry): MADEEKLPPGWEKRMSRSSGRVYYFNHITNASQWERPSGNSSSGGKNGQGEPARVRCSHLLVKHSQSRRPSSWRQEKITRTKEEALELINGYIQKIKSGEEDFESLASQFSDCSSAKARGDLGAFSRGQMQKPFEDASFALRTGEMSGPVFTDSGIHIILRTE

EC50 (read off the curve)	Substance
0.5 µM	pTide-HiLyte™ Fluor 488 (N-terminal HiLyte™ Fluor 488-labeled pTide, Bth-D-phos.Thr-Pip-Nal) (peptide)
0.5 µM	TAMRA-conjugated pTide (N-terminal TAMRA-labeled pTide, Bth-D-phos.Thr-Pip-Nal) (peptide)
